Data as given in PMC11555413 (Nature Communications, 2024).

Target: the molecule itself
Experiment: SEC

| Protein | stoichiometry N |
| --- | --- |
| Myc-APRIL (ligand, UniProt O75888 116-250, looked up) SVLHLVPINATSKDDSDVTEVMWQPALRRGRGLQAQGYGVRIQDAGVYLLYSQVLFQDVTFTMGQVVSREGQGRQETLFRCIRSMPSHPDRAYNSCYSAGVFHLHQGDILSVIIPRARAKLNLSPHGTFLGFVKL | 3 |
| APRIL-Myc (ligand, UniProt O75888 116-250, looked up) SVLHLVPINATSKDDSDVTEVMWQPALRRGRGLQAQGYGVRIQDAGVYLLYSQVLFQDVTFTMGQVVSREGQGRQETLFRCIRSMPSHPDRAYNSCYSAGVFHLHQGDILSVIIPRARAKLNLSPHGTFLGFVKL | 3 |
